B1: BLV.RBD-mFc ligand (receptor-binding domain of the bovine leukemia virus envelope glycoprotein tagged in frame with the constant fragment of mouse … (Fc fusion)
chain: WRCSLSLGNQQWMTTYNQEAKFFISIDQILEAHNQSPFCPRSPRYTLDFVNGYPKIYWPPPQGRRRFGARAMVTYDCEPRCPYVGADHFDCPHWDNASQADQGSFYVNHQTLFLHLKQCHGIFTLTWEIWGYDPLITFSLHKIPAPPQGSVDVPRDCGCKPCICTVPEVSSVFIFPPKPKDVLTITLTPKVTCVVVDISKDDPEVQFSWFVDDVEVHTAQTQPREEQFNSTFRSVSELPIMHQDWLNGKEFKCRVNSAAFPAPIEKTISKTKGRPKAPQVYTIPPPKEQMAKDKVSLTCMITDFFPEDITVEWQWNGQPAENYKNTQPIMDTDGSYFVYSKLNVQKSNWEAGNTFTCSVLHEGLHNHHTEKSLSHSPGK
notes: Used as a 1/10 dilution, detected with anti-mouse IgG1-Alexa Fluor 488; also called BLV.RBD ligand; BLV.RBD tagged with mouse Fc (mFc)
B2: BLV.RBD fused to a rabbit Fc (rFc) tag, expressed from pCSI expression vector (Fc fusion)
chain: WRCSLSLGNQQWMTTYNQEAKFFISIDQILEAHNQSPFCPRSPRYTLDFVNGYPKIYWPPPQGRRRFGARAMVTYDCEPRCPYVGADHFDCPHWDNASQADQGSFYVNHQTLFLHLKQCHGIFTLTWEIWGYDPLITFSLHKIPAPPQGSAPSTCSKPTCPPPELLGGPSVFIFPPKPKDTLMISRTPEVTCVVVDVSQDDPEVQFTWYINNEQVRTARPPLREQQFDCTIRVVSTLPIAHQDWLRGKEFKCKVHNKALPAPIEKTISKARGQPLEPKVYTMGPPREELSSRSVSLTCMINGFYPSDISVEWEKNGKAEDNYKTTPAVLDSDGSYFLYSKLSVPTSEWQRGDVFTCSVMHEALHNHYTQKSISRSPGK
notes: also called pCSI BLV.RBD rFc

Legend:
[1] = target: T1, human CAT1 (cationic amino acid transporter-1, SLC7A1) (human, UniProt P30825 1-629)
T1 sequence (P30825 whole entry): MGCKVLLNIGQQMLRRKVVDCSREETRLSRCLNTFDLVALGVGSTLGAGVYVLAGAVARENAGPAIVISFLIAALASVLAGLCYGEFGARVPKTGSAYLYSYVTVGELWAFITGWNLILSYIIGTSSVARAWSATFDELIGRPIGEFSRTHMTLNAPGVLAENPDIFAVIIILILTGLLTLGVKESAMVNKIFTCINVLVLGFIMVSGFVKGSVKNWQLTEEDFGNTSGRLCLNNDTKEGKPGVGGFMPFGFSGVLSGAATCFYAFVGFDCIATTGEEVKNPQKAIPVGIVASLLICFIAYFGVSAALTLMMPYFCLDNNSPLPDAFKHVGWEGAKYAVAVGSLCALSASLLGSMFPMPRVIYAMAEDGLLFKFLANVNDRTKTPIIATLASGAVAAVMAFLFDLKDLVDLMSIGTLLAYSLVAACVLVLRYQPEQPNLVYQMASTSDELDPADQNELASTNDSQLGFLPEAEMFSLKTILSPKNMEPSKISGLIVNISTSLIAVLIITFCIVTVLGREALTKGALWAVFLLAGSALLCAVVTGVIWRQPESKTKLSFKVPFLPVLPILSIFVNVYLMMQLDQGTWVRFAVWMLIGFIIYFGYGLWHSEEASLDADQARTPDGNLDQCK

[2] = target: T1, human CAT1 (cationic amino acid …); assay: radiolabeled arginine uptake in HEK293T cells expressing BLV.RBD rFc

Binder	fold increase of binding on CAT1 overexpression against empty vector [1] [fold]	binding result [2]
B1	3	–
B2	–	binds
